# Reference: patent US20130336885A1 (Genentech, published 2013)
# T1: gD epitope-tagged LgR5 22-123 (amino acids 22-123 of SEQ ID NO: 67) with a C-terminal GPI anchor on … (human, UniProt O75473 22-123, C-terminal GPI anchor)
# T1 sequence: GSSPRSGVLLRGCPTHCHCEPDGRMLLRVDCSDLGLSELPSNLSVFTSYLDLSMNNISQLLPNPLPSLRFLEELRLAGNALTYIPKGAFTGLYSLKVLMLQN
# T2: gD epitope-tagged LgR5 424-907 (amino acids 424-907 of SEQ ID NO: 67) on transiently transfected 293 cells (human, UniProt O75473 424-907)
# T2 sequence: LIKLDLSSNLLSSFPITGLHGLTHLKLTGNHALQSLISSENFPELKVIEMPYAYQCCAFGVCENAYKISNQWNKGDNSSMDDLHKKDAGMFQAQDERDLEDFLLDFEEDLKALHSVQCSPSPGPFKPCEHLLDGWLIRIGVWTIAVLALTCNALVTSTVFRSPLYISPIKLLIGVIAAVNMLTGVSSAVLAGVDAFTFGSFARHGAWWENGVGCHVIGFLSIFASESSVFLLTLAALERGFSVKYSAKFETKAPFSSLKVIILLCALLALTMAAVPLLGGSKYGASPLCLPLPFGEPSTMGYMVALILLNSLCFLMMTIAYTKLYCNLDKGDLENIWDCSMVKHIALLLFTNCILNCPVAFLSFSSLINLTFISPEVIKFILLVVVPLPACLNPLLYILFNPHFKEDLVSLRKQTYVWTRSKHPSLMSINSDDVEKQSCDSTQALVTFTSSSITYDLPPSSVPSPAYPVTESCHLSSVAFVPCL
# T3: gD epitope-tagged LgR5 22-323 (amino acids 22-323 of SEQ ID NO: 67) with a C-terminal GPI anchor on … (human, UniProt O75473 22-323, C-terminal GPI anchor)
# T3 sequence: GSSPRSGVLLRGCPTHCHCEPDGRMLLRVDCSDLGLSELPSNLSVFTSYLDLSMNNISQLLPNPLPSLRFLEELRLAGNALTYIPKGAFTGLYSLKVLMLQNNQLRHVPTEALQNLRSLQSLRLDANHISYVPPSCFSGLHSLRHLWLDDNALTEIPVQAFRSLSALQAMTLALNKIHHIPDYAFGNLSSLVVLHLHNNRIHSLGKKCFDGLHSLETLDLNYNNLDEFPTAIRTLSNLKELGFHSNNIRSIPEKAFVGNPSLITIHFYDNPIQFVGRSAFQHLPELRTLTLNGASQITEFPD
# T4: gD epitope-tagged mouse LgR5 expressed on stably transfected 293 cells (mouse, UniProt Q9Z1P4 22-907)
# T4 construct: also called gD-tagged mouse LgR5
# T4 sequence: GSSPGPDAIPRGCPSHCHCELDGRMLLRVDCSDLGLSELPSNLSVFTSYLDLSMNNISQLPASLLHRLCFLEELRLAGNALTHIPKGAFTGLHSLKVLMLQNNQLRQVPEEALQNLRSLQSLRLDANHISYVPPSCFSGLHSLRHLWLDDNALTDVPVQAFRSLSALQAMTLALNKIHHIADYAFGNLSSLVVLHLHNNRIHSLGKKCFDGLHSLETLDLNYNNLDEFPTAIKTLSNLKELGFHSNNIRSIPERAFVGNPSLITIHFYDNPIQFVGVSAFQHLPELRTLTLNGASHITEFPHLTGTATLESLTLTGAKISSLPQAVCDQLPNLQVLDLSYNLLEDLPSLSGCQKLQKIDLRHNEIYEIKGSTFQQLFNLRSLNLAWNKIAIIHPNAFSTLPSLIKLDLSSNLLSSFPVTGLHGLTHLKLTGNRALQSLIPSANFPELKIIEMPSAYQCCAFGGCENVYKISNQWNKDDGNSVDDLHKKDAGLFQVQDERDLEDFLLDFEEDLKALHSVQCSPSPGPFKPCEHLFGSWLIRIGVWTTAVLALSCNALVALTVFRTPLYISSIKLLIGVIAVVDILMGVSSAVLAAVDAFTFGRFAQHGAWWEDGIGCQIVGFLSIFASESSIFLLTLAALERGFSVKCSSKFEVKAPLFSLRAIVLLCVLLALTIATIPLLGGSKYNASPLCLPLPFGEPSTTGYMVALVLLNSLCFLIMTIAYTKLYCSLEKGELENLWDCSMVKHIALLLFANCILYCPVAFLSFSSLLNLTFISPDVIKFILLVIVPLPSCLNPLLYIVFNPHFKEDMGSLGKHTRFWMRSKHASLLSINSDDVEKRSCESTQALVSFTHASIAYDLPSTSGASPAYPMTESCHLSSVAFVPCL
# T5: human LgR5 ECD (amino acids 22-557 fused to His-Fc expressed in a baculovirus system, or amino acids 22-558 … (human, UniProt O75473 22-557))
# T5 construct: not shown: C-terminal His-tagged Fc
# T5 sequence: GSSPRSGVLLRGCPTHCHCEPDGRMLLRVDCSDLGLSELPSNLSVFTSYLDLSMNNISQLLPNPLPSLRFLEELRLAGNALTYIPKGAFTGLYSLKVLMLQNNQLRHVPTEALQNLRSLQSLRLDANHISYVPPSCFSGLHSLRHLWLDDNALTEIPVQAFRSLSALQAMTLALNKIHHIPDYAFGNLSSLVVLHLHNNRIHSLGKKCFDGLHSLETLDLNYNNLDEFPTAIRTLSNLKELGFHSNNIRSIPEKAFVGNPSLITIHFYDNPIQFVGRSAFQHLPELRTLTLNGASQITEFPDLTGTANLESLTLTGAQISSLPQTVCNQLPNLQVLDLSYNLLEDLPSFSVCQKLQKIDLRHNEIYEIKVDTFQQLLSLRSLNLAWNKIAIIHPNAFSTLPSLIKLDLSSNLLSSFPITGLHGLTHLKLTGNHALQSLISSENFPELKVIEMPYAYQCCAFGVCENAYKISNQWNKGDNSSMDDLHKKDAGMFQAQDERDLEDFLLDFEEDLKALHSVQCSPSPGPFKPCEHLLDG
# Columns and labels:
# [1] = target: T1, gD epitope-tagged LgR5 22-123 (amino …); experiment: FACS on transiently transfected 293 cells
# [2] = target: T2, gD epitope-tagged LgR5 424-907 (amino …); experiment: FACS on transiently transfected 293 cells
# [3] = target: T3, gD epitope-tagged LgR5 22-323 (amino …); experiment: FACS on transiently transfected 293 cells
# [4] = target: T4, gD epitope-tagged mouse LgR5 expressed …; experiment: FACS on 293 cells stably transfected with gD epitope-tagged LgR5, 10 ug/ml antibody, R-Phycoerythrin goat anti-human detection
# Protocol: Monoclonal antibodies were tested to determine if they cross-react with LgR5 from species other than human. […] Residues that are identical among all four species are indicated by asterisks (*). […] YW353 antibody binds human and cynomolgus monkey LgR5, but not rat or mouse LgR5. Ch8E11 and hu8E11.v2 antibodies bind all four species of LgR5, although binding to rat LgR5 is not as strong as binding to human, cynomolgus monkey, or mouse LgR5. 2H6 antibody binds to human and mouse LgR5, and was not tested for binding to cynomolgus monkey or rat LgR5.
# [5] = target: T5, human LgR5 ECD (amino acids 22-557 …); experiment: SPR (BIAcore-3000), antibody captured by anti-human Fc, LgR5 ECD-Fc injected
# [6] = target: T5, human LgR5 ECD (amino acids 22-557 …); experiment: BIAcore-3000 SPR, IgG captured on goat anti-human Fc, human LgR5 ECD-Fc injected, 25 C, 1:1 Langmuir model
# Protocol: The affinity of each 8E11 IgG variant for human LgR5 was determined by surface plasmon resonance using a BIAcore™-3000. BIAcore™ research grade CMS chips were activated with 1-ethyl-3-(3-dimethylaminopropyl) carbodiimide (EDC) and N-hydroxysuccinimide (NHS) reagents according to the supplier's instructions. Goat anti-human Fc IgGs were coupled to the chips to achieve approximately 10,000 response units (RU) in each flow cell. Unreacted coupling groups were blocked with 1M ethanolamine. For kinetics measurements, anti-LGR5 antibodies were captured to achieve approximately 300 RU. Two-fold serial dilutions of human LgR5ECD (amino acids 22-557 fused to His-Fc expressed in a baculovirus system, or amino acids 22-558 fused to Fc expressed from CHO cells; 125 nM to 0.49 nM) were injected in HBS-P buffer (0.01M HEPES pH7.4, 0.15M NaCl, 0.005% surfactant P20) at 25° C. with a flow rate of 30 μl/min. Association rates (kₒₙ) and dissociation rates (koff) were calculated using a 1:1 Langmuir binding model (BIAcore™ Evaluation Software version 3.2). The equilibrium dissociation constant (Kd) was calculated as the ratio koff/kₒₙ.
Binder,binding result [1],binding result [2],binding result [3],binding result [4],Kd [5],Kd [6],koff [6],kon [6]
"monoclonal antibody 2H6 (antibody, V domains shown, The variable domains are the same in both forms; also called m2H6; mu2H6) VH: EVQLQQSGPELVKPGTSMKISCKASGYSFTGYTMNWVKQSHKNGLEWIGLINCYNGGTNYNQKFKGKATLTVDKSSSTAFMELLSLTSEDSAVYYCARGGSTMITPRFAYWGQGTLVTVSS VL: DIVMTQSPSSLTVTAGEKVTMSCKSSQSLLNSGNQKNYLTWFQQKPGQPPKLLIYWASTRESGVPDRFTGSGSGTDFTLTISNVQAEDLAVYYCQNDYSFPFTFGQGTKVEIKR",no binding (tested: 10 µg/ml),no binding (tested: 10 µg/ml),no binding (tested: 10 µg/ml),binds,208 nM,,,
"h8E11.v3 (antibody, V domains shown, VH CDR graft + 71S/78V; also called hu8E11.v3) VH: EVQLVQSGAEVKKPGASVKVSCKASGYTFSAYWIEWVRQAPGQGLEWIGEILPGSDSTDYNEKFKVRVTITSDTSTSTVYLELSSLRSEDTAVYYCARGGHYGSLDYWGQGTLVTVSS VL: DIVMTQSPDSLAVSLGERATINCRASESVDNYGNSFMHWYQQKPGQPPKLLIYLASNLESGVPDRFSGSGSRTDFTLTISSLQAEDVAVYYCQQNYEDPFTFGQGTKVEIKR",,,,,,4.73 nM,0.00053 s⁻¹,112000 M⁻¹ s⁻¹
"h8E11.v5 (antibody, V domains shown, VH CDR graft + 71R/78A; also called hu8E11.v5) VH: EVQLVQSGAEVKKPGASVKVSCKASGYTFSAYWIEWVRQAPGQGLEWIGEILPGSDSTDYNEKFKVRVTITRDTSTSTAYLELSSLRSEDTAVYYCARGGHYGSLDYWGQGTLVTVSS VL: DIVMTQSPDSLAVSLGERATINCRASESVDNYGNSFMHWYQQKPGQPPKLLIYLASNLESGVPDRFSGSGSGTDFTLTISSLQAEDVAVYYCQQNYEDPFTFGQGTKVEIKR",,,,,,14.3 nM,0.000933 s⁻¹,65000 M⁻¹ s⁻¹
"h8E11.v7 (antibody, V domains shown, VH CDR graft + 71R/78A; also called hu8E11.v7) VH: EVQLVQSGAEVKKPGASVKVSCKASGYTFSAYWIEWVRQAPGQGLEWIGEILPGSDSTDYNEKFKVRVTITRDTSTSTAYLELSSLRSEDTAVYYCARGGHYGSLDYWGQGTLVTVSS VL: DIVMTQSPDSLAVSLGERATINCRASESVDNYGNSFMHWYQQKPGQPPKLLIYLASNLESGVPDRFSGSGSRTDFTLTISSLQAEDVAVYYCQQNYEDPFTFGQGTKVEIKR",,,,,,22.1 nM,0.00258 s⁻¹,117000 M⁻¹ s⁻¹

# Other lines, results leading:
binding result [1],binding result [2],binding result [3],binding result [4],Kd [5],Kd [6],koff [6],kon [6],Binder
,,,,,3.63 nM,0.000922 s⁻¹,254000 M⁻¹ s⁻¹,"h8E11.v4 (antibody, V domains shown, VH CDR graft + 67A/69F/71S/78V; also called hu8E11.v4) VH: EVQLVQSGAEVKKPGASVKVSCKASGYTFSAYWIEWVRQAPGQGLEWIGEILPGSDSTDYNEKFKVRATFTSDTSTSTVYLELSSLRSEDTAVYYCARGGHYGSLDYWGQGTLVTVSS VL: DIVMTQSPDSLAVSLGERATINCRASESVDNYGNSFMHWYQQKPGQPPKLLIYLASNLESGVPDRFSGSGSRTDFTLTISSLQAEDVAVYYCQQNYEDPFTFGQGTKVEIKR"
,,,,,5.05 nM,0.000772 s⁻¹,153000 M⁻¹ s⁻¹,"h8E11.v1 (antibody, V domains shown, VH CDR graft + 71S/78V; also called hu8E11.v1) VH: EVQLVQSGAEVKKPGASVKVSCKASGYTFSAYWIEWVRQAPGQGLEWIGEILPGSDSTDYNEKFKVRVTITSDTSTSTVYLELSSLRSEDTAVYYCARGGHYGSLDYWGQGTLVTVSS VL: DIVMTQSPDSLAVSLGERATINCRASESVDNYGNSFMHWYQQKPGQPPKLLIYLASNLESGVPDRFSGSGSGTDFTLTISSLQAEDVAVYYCQQNYEDPFTFGQGTKVEIKR"
,,,,,14.1 nM,0.00202 s⁻¹,143000 M⁻¹ s⁻¹,"h8E11.v6 (antibody, V domains shown, VH CDR graft + 71A/78A; also called hu8E11.v6) VH: EVQLVQSGAEVKKPGASVKVSCKASGYTFSAYWIEWVRQAPGQGLEWIGEILPGSDSTDYNEKFKVRVTITADTSTSTAYLELSSLRSEDTAVYYCARGGHYGSLDYWGQGTLVTVSS VL: DIVMTQSPDSLAVSLGERATINCRASESVDNYGNSFMHWYQQKPGQPPKLLIYLASNLESGVPDRFSGSGSGTDFTLTISSLQAEDVAVYYCQQNYEDPFTFGQGTKVEIKR"
,,,,,8.97 nM,0.00217 s⁻¹,242000 M⁻¹ s⁻¹,"h8E11.v8 (antibody, V domains shown, VH CDR graft + 71A/78A; also called hu8E11.v8) VH: EVQLVQSGAEVKKPGASVKVSCKASGYTFSAYWIEWVRQAPGQGLEWIGEILPGSDSTDYNEKFKVRVTITADTSTSTAYLELSSLRSEDTAVYYCARGGHYGSLDYWGQGTLVTVSS VL: DIVMTQSPDSLAVSLGERATINCRASESVDNYGNSFMHWYQQKPGQPPKLLIYLASNLESGVPDRFSGSGSRTDFTLTISSLQAEDVAVYYCQQNYEDPFTFGQGTKVEIKR"
